Reference: US20060003400A1, “Methods and compositions for characterizing a redox reagent system enzyme” (priority 2004, published 2006)
Numbering of substitutions follows the chain as printed.

B1: wild-type s-GDH: soluble form of pyrroloquinoline quinone (PQQ)-dependent glucose dehydrogenase, naturally occurring (protein, UniProt P13650 25-478, looked up)
Quinoprotein glucose …: DVPLTPSQFAKAKSENFDKKVILSNLNKPHALLWGPDNQIWLTERATGKILRVNPESGSVKTVFQVPEIVNDADGQNGLLGFAFHPDFKNNPYIYISGTFKNPKSTDKELPNQTIIRRYTYNKSTDTLEKPVDLLAGLPSSKDHQSGRLVIGPDQKIYYTIGDQGRNQLAYLFLPNQAQHTPTQQELNGKDYHTYMGKVLRLNLDGSIPKDNPSFNGVVSHIYTLGHRNPQGLAFTPNGKLLQSEQGPNSDDEINLIVKGGNYGWPNVAGYKDDSGYAYANYSAAANKSIKDLAQNGVKVAAGVPVTKESEWTGKNFVPPLKTLYTVQDTYNYNDPTCGEMTYICWPTVAPSSAYVYKGGKKAITGWENTLLVPSLKRGVIFRIKLDPTYSTTYDDAVPMFKSNNRYRDVIASPDGNVLYVLTDTAGNVQKDDGSVTNTLENPGSLIKFTYKAK
B2: Asn452Thr: mutant form of s-GDH with one amino acid substitution, Asn452Thr (protein, UniProt P13650 25-478, looked up, variant N452T)
Quinoprotein glucose …: B1 Quinoprotein glucose … with N428T
B3: Asp167Glu: mutant form of s-GDH with one amino acid substitution, Asp167Glu (protein, UniProt P13650 25-478, looked up, variant D167E)
Quinoprotein glucose …: B1 Quinoprotein glucose … with D143E

How the values were obtained:
Assay type in all cases: biochemical
[1] = Conventional enzyme-coated test strips dosed with whole blood spiked with interfering sugar, chronoamperometry; conditions: whole blood about 80 mg/dL glucose spiked with about 4 mM or 12 mM xylose; FIG. 4
Description: In order to develop an assay for screening mutant forms of s-GDH with varying sugar specificities, the response of wild type and mutant forms of s-GDH with reducing sugars first were tested in a conventional enzyme-coated glucose test strip format. The screening assay ideally mimics the response shown with conventionally enzyme-coated strips tested with whole blood or plasma spiked with a reducing sugar. The mutant forms of s-GDH tested contained one amino acid substitution each: Asn452Thr and Asp167Glu. The test strips were made by a web-based process in which the working electrode (gold) was slot coated with a buffered reagent solution containing approximately 50 to 500 kU/ml wild type or mutant s-GDH, PQQ at a 2 to 1 mole ratio of PQQ to GDH, 2 mM CaCl2, 750 mM ferricyanide, 67 mM citraconate at pH 6.8, 0.1% pluronics and 75 mM sucrose. […] The activity of each enzyme was based on a spectrophotometric assay using DCIP (2,6-Dichlorophenolindophenol) and PES (Phenazine Ethosulfate) in 50 mM PIPES (Piperazine, N,N′bis-(2-ethanesulfonic acid)) buffer at pH 6.8. In the assay, change in the absorbance of DCIP at 600 nm was monitored and the decreasing rate of absorbance was referred to as the reaction rate of the enzyme. The enzyme activity by which […] of DCIP was reduced in one minute was defined as 1 Unit. The molar absorption coefficient of DCIP at pH 6.8 was 17.4 mM-1. A COBAS FARA II centrifugal analyzer was used for the spectrophotometric assay. […]
Whole blood at about 80 mg/dL (or 4.4 mM) of endogenous glucose was spiked with either a high therapeutic level (about 60 mg/dL or 4 mM) or three times a high therapeutic level (about 180 mg/dL or 12 mM) of the interfering sugar xylose. The spiked samples were dosed onto the above test strips and glucose concentration was determined by chronoamperometry in which a potential of −0.3 V was applied for 10 seconds, followed by applying a potential of +0.3 V for 5 seconds. Absolute bias to a control sample with no xylose was calculated for each enzyme and was expressed as a function of xylose concentration, as shown in FIG. 4.

[2] = Enzyme/sugar solution dosed onto enzyme-free electrochemical cell (process of the invention), current response; conditions: FIGS. 6-8; for Current response to xylose compared with glucose: xylose less than 10 mM, about 13 activity units per cell; for Current response to all reducing sugars tested: sugars up to about 40 mM
Description: The response of wild-type s-GDH to reducing sugars was measured using electrochemical cells (i.e., test strips) made by a web-based process in which the working electrode (gold) was slot coated with a buffered reagent solution containing 750 mM ferricyanide, 67 mM citraconate at pH 6.8, 0.1% pluronics and 75 mM sucrose. As in Example 1, an IR energy source was used to dry the reagent onto the working electrode. Electrochemical cells were formed by adhering the working electrode with dried reagent to a gold counter electrode containing dried MESA to prevent fouling of the counter electrode.
Wild-type s-GDH in 67 mM citraconate at pH 6.8 with PQQ at a 2 to 1 mole ratio of PQQ to GDH and 2 mM CaCl2 was mixed with physiologically relevant concentrations (up to about 40 mM or 720 mg/dL) of one of the following sugars: glucose, xylose, galactose, maltose, or lactose. The concentration of the wild type s-GDH in each solution was adjusted such that approximately 13 activity units per electrochemical cell were used. Each enzyme/sugar-containing solution was dosed onto an electrochemical cell containing dried ferricyanide, citraconate, Pluronics and sucrose but no enzyme (see above for concentrations). The current response was measured and the average of three determinations was graphed as a function of sugar concentration, as shown in FIG. 6.
The response of Asn452Thr to reducing sugars was measured using the same lot of electrochemical cells as described in Example 2 above (i.e., with cells containing dried ferricyanide, citraconate, Pluronics and sucrose but no enzyme). Asn452Thr was mixed with physiologically relevant concentrations (up to about 40 mM or 720 mg/dL) of one of the following sugars: glucose, xylose, galactose, maltose, or lactose. The concentration of Asn452Thr in each solution was adjusted such that approximately 13 activity units per electrochemical cell were used. Each enzyme/sugar-containing solution was dosed onto an electrochemical cell containing dried ferricyanide, citraconate, Pluronics and sucrose but no enzyme. […] Thus, the assay mimics the results obtained with Asn452Thr-coated strips with the advantages discussed above.
The response of Asp167Glu to reducing sugars was measured as described in Example 3 above. Asp167Glu was mixed with physiologically relevant concentrations (up to about 40 mM or 720 mg/dL) of one of the following sugars: glucose, xylose, galactose, maltose, or lactose; and dosed onto an electrochemical cell containing dried ferricyanide, citraconate, Pluronics and sucrose but no enzyme. […] Thus, again, the assay beneficially mimics the results obtained with Asp167Glu-coated strips but in a quick and easy-to-use format.

[3] = DCIP/PES spectrophotometric assay (enzyme-limiting conditions); conditions: same range of sugar concentrations; results not shown
Description: (§1) In order to develop an assay for screening mutant forms of s-GDH with varying sugar specificities, the response of wild type and mutant forms of s-GDH with reducing sugars first were tested in a conventional enzyme-coated glucose test strip format. The screening assay ideally mimics the response shown with conventionally enzyme-coated strips tested with whole blood or plasma spiked with a reducing sugar. The mutant forms of s-GDH tested contained one amino acid substitution each: Asn452Thr and Asp167Glu. The test strips were made by a web-based process in which the working electrode (gold) was slot coated with a buffered reagent solution containing approximately 50 to 500 kU/ml wild type or mutant s-GDH, PQQ at a 2 to 1 mole ratio of PQQ to GDH, 2 mM CaCl2, 750 mM ferricyanide, 67 mM citraconate at pH 6.8, 0.1% pluronics and 75 mM sucrose. […] In the assay, change in the absorbance of DCIP at 600 nm was monitored and the decreasing rate of absorbance was referred to as the reaction rate of the enzyme. […]
(§2) Plasma with about 80 mg/dL (or 4.4 mM) endogenous glucose was spiked with up to 40 mM each of five reducing sugars: glucose, maltose, xylose, galactose and lactose. The spiked samples were dosed onto the above test strips and glucose concentration was determined by chronoamperometry as above. […]

[4] = Conventional wild type s-GDH-coated test strips dosed with plasma spiked with reducing sugars, chronoamperometry; conditions: plasma spiked with up to 40 mM of five reducing sugars; at less than about 10 mM; FIG. 5
Description: as §1, §2

| Molecule | Absolute bias to a control sample with no xylose as a function of xylose concentration [1] | Current response to xylose compared with glucose [2] | Reactivity with xylose and galactose [3] | Current response as a function of sugar concentration [4] | Current response to all reducing sugars tested [2] |
| --- | --- | --- | --- | --- | --- |
| B1 | linear correlation | reacted equally well with glucose and xylose | low reactivity with xylose and galactose | reacts equally well with each of the five reducing sugars tested | – |
| B2 | linear correlation | reacts equally well with glucose and xylose | – | – | reacts equally well with all the sugars tested at less than 10 mM sugar |
| B3 | reduced response with xylose | reduced response to xylose | – | – | reacts equally well with all the other reducing sugars tested |
